# Tests used:
# [1] = target: T1, human CD3ε/δ (ACRO systems, CDD-H52W1) (human, UniProt P07766 23-126; P04234 22-105); experiment: serum-stability ELISA, Day 1 vs Day 0
# T1 construct: bought recombinant heterodimer; also called human CD3 epsilon/delta; Human CD3ε/CD3δ
# Procedure: (§1) The samples to be tested were centrifuged at 4° C. at 12000 rpm for 30 minutes to remove the precipitate. 200 μl of each sample to be tested (0.5 mg/ml) was collected in a 1.5 ml Eppendorf tube. An equal volume of human serum (GEMINI, H2OYOOK) was added, mixed thoroughly, and the mixture was incubated in a 37° C. constant temperature CO₂ incubator. For a total of 10 days, 40 μl samples was aspirated every day and stored at −20° C.
# (§2) Enzyme-linked immunosorbent assay (ELISA) was used to test the bispecific antibodies' binding to human CEA and human CD3 epsilon/delta antigen. The steps are as follows: the antigen human CD3ε/δ (ACRO systems, CDD-H52W1) and the recombinant tumor antigen human CEA (CEACAM-5/CD66e, ACRO systems, CE5-H5226) were diluted to 1 μg/ml with PBS, and then added to the 96-well plate at 100 μl per well. The wells were coated overnight at 4° C. After washing 3 times with 0.05% PBST, 200 μl 5% skimmed milk powder was added to each well and incubated at 37° C. for 2 h. After washing 3 times with 0.05% PBST, 100 μl primary antibody sample (10 μg/ml) was added to each well, and incubated at 37° C. for 2 h. After washing 3 times with 0.05% PBST, 100 μl (1:6000) diluted secondary antibody goat anti-human Fc-HRP (sigma, A2170) was added to each well, incubated at room temperature for 1 h. After washing 8 times with 0.05% PBST, 50 μl TMB color developing solution was added to each well, and incubated at room temperature for 10-15 min. 50 μl 1 mM HCl was added to each well to stop the color development. 450 nm Absorbance (OD) was read.
# (§3) The binding of antibodies to antigen was calculated according to the following formula: Binding (%)=[(ODdayn−ODb)/(ODday0−ODb)]×100%. ODdayn: experimental well (the protein was stored in the serum for n days); ODday0: control well (the protein was not stored in the serum); ODb: blank well (no primary antibody added).
# [2] = target: T1, human CD3ε/δ (ACRO systems, CDD-H52W1); experiment: serum-stability ELISA, Day 2 vs Day 0
# Procedure: as §1, §2, §3
# [3] = target: T1, human CD3ε/δ (ACRO systems, CDD-H52W1); experiment: serum-stability ELISA, Day 5 vs Day 0
# Procedure: as §1, §2, §3
# [4] = target: T1, human CD3ε/δ (ACRO systems, CDD-H52W1); experiment: serum-stability ELISA, Day 6 vs Day 0
# Procedure: as §1, §2, §3
# [5] = target: T1, human CD3ε/δ (ACRO systems, CDD-H52W1); experiment: serum-stability ELISA, Day 7 vs Day 0
# Procedure: as §1, §2, §3
# [6] = target: T1, human CD3ε/δ (ACRO systems, CDD-H52W1); experiment: serum-stability ELISA, Day 9 vs Day 0
# Procedure: as §1, §2, §3
# [7] = target: T1, human CD3ε/δ (ACRO systems, CDD-H52W1); experiment: serum-stability ELISA, Day 10 vs Day 0
# Procedure: as §1, §2, §3
# [8] = target: T1, human CD3ε/δ (ACRO systems, CDD-H52W1); experiment: serum-stability ELISA, Day 0 (reference)
Binder,Binding % [1],Binding % [2],Binding % [3],Binding % [4],Binding % [5],Binding % [6],Binding % [7],Binding % [8]
"201 (CEA-Fab-Knob-+Hole) (bispecific antibody, human IgG4 S228P, kappa, F234A L235A, VHH fused after CL of the light chain) heavy: EVKLLESGGGLVQPKGSLKLSCAASGFTFNTYAMNWVRQAPGKGLEWVARIRSKYNNYATYYADSVKDRFTISRDDSQSILYLQMNNLKTEDTAMYYCVRHGNFGNSYVSWFAYWGQGTLVTVSSASTKGPSVFPLAPCSRSTSESTAALGCLVKDYFPEPVTVSWNSGALTSGVHTFPAVLQSSGLYSLSSVVTVPSSSLGTKTYTCNVDHKPSNTKVDKRVESKYGPPCPPCPAPEAAGGPSVFLFPPKPKDTLMISRTPEVTCVVVDVSQEDPEVQFNWYVDGVEVHNAKTKPREEQFNSTYRVVSVLTVLHQDWLNGKEYKCKVSNKGLPSSIEKTISKAKGQPREPQVYTLPPCQEEMTKNQVSLWCLVKGFYPSDIAVEWESNGQPENNYKTTPPVLDSDGSFFLYSRLTVDKSRWQEGNVFSCSVMHEALHNHYTQKSLSLSL ESKYGPPCPPCPAPEAAGGPSVFLFPPKPKDTLMISRTPEVTCVVVDVSQEDPEVQFNWYVDGVEVHNAKTKPREEQFNSTYRVVSVLTVLHQDWLNGKEYKCKVSNKGLPSSIEKTISKAKGQPREPQVCTLPPSQEEMTKNQVSLSCAVKGFYPSDIAVEWESNGQPENNYKTTPPVLDSDGSFFLVSRLTVDKSRWQEGNVFSCSVMHEALHNRFTQKSLSLSL light: QAVVTQESALTTSPGETVTLTCRSSTGAVTTSNYANWVQEKPDHLFTGLIGGTNKRAPGVPARFSGSLIGDKAALTITGAQTEDEAIYFCALWYSNLWVFGGGTKVEIKRTVAAPSVFIFPPSDEQLKSGTASVVCLLNNFYPREAKVQWKVDNALQSGNSQESVTEQDSKDSTYSLSSTLTLSKADYEKHKVYACEVTHQGLSSPVTKSFNRGECGGGGSGGGGSEVQLVESGGGFVQAGESLTLSCTSSTLTFTPYRMAWYRQAPGKQRDLVADISSGDGRTTNYADFAKGRFTISRDNIKNTVFLRMTNLKPEDTAVYYCNTFVSFVGIARSWGQGTQVTVSS",104%,76.3%,105%,102%,104%,101%,98.8%,100%
"202 (Knob+CEA-Fab-Hole) (bispecific antibody, human IgG4 S228P, kappa, F234A L235A, VHH fused after CL of the light chain) ESKYGPPCPPCPAPEAAGGPSVFLFPPKPKDTLMISRTPEVTCVVVDVSQEDPEVQFNWYVDGVEVHNAKTKPREEQFNSTYRVVSVLTVLHQDWLNGKEYKCKVSNKGLPSSIEKTISKAKGQPREPQVYTLPPCQEEMTKNQVSLWCLVKGFYPSDIAVEWESNGQPENNYKTTPPVLDSDGSFFLYSRLTVDKSRWQEGNVFSCSVMHEALHNHYTQKSLSLSL heavy: EVKLLESGGGLVQPKGSLKLSCAASGFTFNTYAMNWVRQAPGKGLEWVARIRSKYNNYATYYADSVKDRFTISRDDSQSILYLQMNNLKTEDTAMYYCVRHGNFGNSYVSWFAYWGQGTLVTVSSASTKGPSVFPLAPCSRSTSESTAALGCLVKDYFPEPVTVSWNSGALTSGVHTFPAVLQSSGLYSLSSVVTVPSSSLGTKTYTCNVDHKPSNTKVDKRVESKYGPPCPPCPAPEAAGGPSVFLFPPKPKDTLMISRTPEVTCVVVDVSQEDPEVQFNWYVDGVEVHNAKTKPREEQFNSTYRVVSVLTVLHQDWLNGKEYKCKVSNKGLPSSIEKTISKAKGQPREPQVCTLPPSQEEMTKNQVSLSCAVKGFYPSDIAVEWESNGQPENNYKTTPPVLDSDGSFFLVSRLTVDKSRWQEGNVFSCSVMHEALHNRFTQKSLSLSL light: QAVVTQESALTTSPGETVTLTCRSSTGAVTTSNYANWVQEKPDHLFTGLIGGTNKRAPGVPARFSGSLIGDKAALTITGAQTEDEAIYFCALWYSNLWVFGGGTKVEIKRTVAAPSVFIFPPSDEQLKSGTASVVCLLNNFYPREAKVQWKVDNALQSGNSQESVTEQDSKDSTYSLSSTLTLSKADYEKHKVYACEVTHQGLSSPVTKSFNRGECGGGGSGGGGSEVQLVESGGGFVQAGESLTLSCTSSTLTFTPYRMAWYRQAPGKQRDLVADISSGDGRTTNYADFAKGRFTISRDNIKNTVFLRMTNLKPEDTAVYYCNTFVSFVGIARSWGQGTQVTVSS",108%,86.8%,110%,108%,108%,104%,99.1%,100%

# Now from value to binder:
Binding % [1],Binding % [2],Binding % [3],Binding % [4],Binding % [5],Binding % [6],Binding % [7],Binding % [8],Binder
105%,102%,99.8%,103%,103%,105%,99.4%,100%,"204 (Knob+CEA-Fab-Hole) (bispecific antibody, human IgG4 S228P, kappa, F234A L235A, VHH fused before VL of the light chain) ESKYGPPCPPCPAPEAAGGPSVFLFPPKPKDTLMISRTPEVTCVVVDVSQEDPEVQFNWYVDGVEVHNAKTKPREEQFNSTYRVVSVLTVLHQDWLNGKEYKCKVSNKGLPSSIEKTISKAKGQPREPQVYTLPPCQEEMTKNQVSLWCLVKGFYPSDIAVEWESNGQPENNYKTTPPVLDSDGSFFLYSRLTVDKSRWQEGNVFSCSVMHEALHNHYTQKSLSLSL heavy: EVKLLESGGGLVQPKGSLKLSCAASGFTFNTYAMNWVRQAPGKGLEWVARIRSKYNNYATYYADSVKDRFTISRDDSQSILYLQMNNLKTEDTAMYYCVRHGNFGNSYVSWFAYWGQGTLVTVSSASTKGPSVFPLAPCSRSTSESTAALGCLVKDYFPEPVTVSWNSGALTSGVHTFPAVLQSSGLYSLSSVVTVPSSSLGTKTYTCNVDHKPSNTKVDKRVESKYGPPCPPCPAPEAAGGPSVFLFPPKPKDTLMISRTPEVTCVVVDVSQEDPEVQFNWYVDGVEVHNAKTKPREEQFNSTYRVVSVLTVLHQDWLNGKEYKCKVSNKGLPSSIEKTISKAKGQPREPQVCTLPPSQEEMTKNQVSLSCAVKGFYPSDIAVEWESNGQPENNYKTTPPVLDSDGSFFLVSRLTVDKSRWQEGNVFSCSVMHEALHNRFTQKSLSLSL light: EVQLVESGGGFVQAGESLTLSCTSSTLTFTPYRMAWYRQAPGKQRDLVADISSGDGRTTNYADFAKGRFTISRDNIKNTVFLRMTNLKPEDTAVYYCNTFVSFVGIARSWGQGTQVTVSSGGGGSGGGGSQAVVTQESALTTSPGETVTLTCRSSTGAVTTSNYANWVQEKPDHLFTGLIGGTNKRAPGVPARFSGSLIGDKAALTITGAQTEDEAIYFCALWYSNLWVFGGGTKVEIKRTVAAPSVFIFPPSDEQLKSGTASVVCLLNNFYPREAKVQWKVDNALQSGNSQESVTEQDSKDSTYSLSSTLTLSKADYEKHKVYACEVTHQGLSSPVTKSFNRGEC"
103%,85.3%,102%,101%,106%,103%,101%,100%,"203 (CEA-Fab-Knob-+Hole) (bispecific antibody, human IgG4 S228P, kappa, F234A L235A, VHH fused before VL of the light chain) heavy: EVKLLESGGGLVQPKGSLKLSCAASGFTFNTYAMNWVRQAPGKGLEWVARIRSKYNNYATYYADSVKDRFTISRDDSQSILYLQMNNLKTEDTAMYYCVRHGNFGNSYVSWFAYWGQGTLVTVSSASTKGPSVFPLAPCSRSTSESTAALGCLVKDYFPEPVTVSWNSGALTSGVHTFPAVLQSSGLYSLSSVVTVPSSSLGTKTYTCNVDHKPSNTKVDKRVESKYGPPCPPCPAPEAAGGPSVFLFPPKPKDTLMISRTPEVTCVVVDVSQEDPEVQFNWYVDGVEVHNAKTKPREEQFNSTYRVVSVLTVLHQDWLNGKEYKCKVSNKGLPSSIEKTISKAKGQPREPQVYTLPPCQEEMTKNQVSLWCLVKGFYPSDIAVEWESNGQPENNYKTTPPVLDSDGSFFLYSRLTVDKSRWQEGNVFSCSVMHEALHNHYTQKSLSLSL ESKYGPPCPPCPAPEAAGGPSVFLFPPKPKDTLMISRTPEVTCVVVDVSQEDPEVQFNWYVDGVEVHNAKTKPREEQFNSTYRVVSVLTVLHQDWLNGKEYKCKVSNKGLPSSIEKTISKAKGQPREPQVCTLPPSQEEMTKNQVSLSCAVKGFYPSDIAVEWESNGQPENNYKTTPPVLDSDGSFFLVSRLTVDKSRWQEGNVFSCSVMHEALHNRFTQKSLSLSL light: EVQLVESGGGFVQAGESLTLSCTSSTLTFTPYRMAWYRQAPGKQRDLVADISSGDGRTTNYADFAKGRFTISRDNIKNTVFLRMTNLKPEDTAVYYCNTFVSFVGIARSWGQGTQVTVSSGGGGSGGGGSQAVVTQESALTTSPGETVTLTCRSSTGAVTTSNYANWVQEKPDHLFTGLIGGTNKRAPGVPARFSGSLIGDKAALTITGAQTEDEAIYFCALWYSNLWVFGGGTKVEIKRTVAAPSVFIFPPSDEQLKSGTASVVCLLNNFYPREAKVQWKVDNALQSGNSQESVTEQDSKDSTYSLSSTLTLSKADYEKHKVYACEVTHQGLSSPVTKSFNRGEC"
